Laboratory results from paper PMC3052743.

Molecular target: T1, full-length gp130 with a C-terminal EYMPME (Glu-Glu) epitope tag, P40189
T1 chain: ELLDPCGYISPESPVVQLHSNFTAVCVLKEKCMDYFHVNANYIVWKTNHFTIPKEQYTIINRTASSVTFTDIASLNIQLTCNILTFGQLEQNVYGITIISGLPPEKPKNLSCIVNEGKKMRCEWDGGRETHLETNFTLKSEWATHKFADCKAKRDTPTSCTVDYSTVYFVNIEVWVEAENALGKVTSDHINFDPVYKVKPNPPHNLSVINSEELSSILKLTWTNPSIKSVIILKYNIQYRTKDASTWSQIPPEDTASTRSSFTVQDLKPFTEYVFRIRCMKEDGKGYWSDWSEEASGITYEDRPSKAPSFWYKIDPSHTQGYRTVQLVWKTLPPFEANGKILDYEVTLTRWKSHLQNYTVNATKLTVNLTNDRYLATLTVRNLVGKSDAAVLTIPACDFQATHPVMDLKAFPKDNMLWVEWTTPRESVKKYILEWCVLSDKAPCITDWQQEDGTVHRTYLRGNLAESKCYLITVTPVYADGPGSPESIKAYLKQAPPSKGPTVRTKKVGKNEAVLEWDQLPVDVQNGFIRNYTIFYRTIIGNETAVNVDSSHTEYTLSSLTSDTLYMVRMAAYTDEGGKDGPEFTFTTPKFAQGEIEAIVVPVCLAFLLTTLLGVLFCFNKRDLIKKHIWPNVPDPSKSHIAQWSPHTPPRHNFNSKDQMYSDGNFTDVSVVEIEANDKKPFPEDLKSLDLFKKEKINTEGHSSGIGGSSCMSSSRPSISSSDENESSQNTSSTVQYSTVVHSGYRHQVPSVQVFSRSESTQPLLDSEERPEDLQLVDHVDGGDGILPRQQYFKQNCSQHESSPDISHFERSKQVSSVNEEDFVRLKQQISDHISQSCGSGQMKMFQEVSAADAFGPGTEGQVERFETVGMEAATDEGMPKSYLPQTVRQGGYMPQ
Assay: SEC
Conditions: remark: other sources report otherwise

B1: full-length gp130 with a C-terminal EYMPME (Glu-Glu) epitope tag, P40189 23-918 (receptor)
chain: ELLDPCGYISPESPVVQLHSNFTAVCVLKEKCMDYFHVNANYIVWKTNHFTIPKEQYTIINRTASSVTFTDIASLNIQLTCNILTFGQLEQNVYGITIISGLPPEKPKNLSCIVNEGKKMRCEWDGGRETHLETNFTLKSEWATHKFADCKAKRDTPTSCTVDYSTVYFVNIEVWVEAENALGKVTSDHINFDPVYKVKPNPPHNLSVINSEELSSILKLTWTNPSIKSVIILKYNIQYRTKDASTWSQIPPEDTASTRSSFTVQDLKPFTEYVFRIRCMKEDGKGYWSDWSEEASGITYEDRPSKAPSFWYKIDPSHTQGYRTVQLVWKTLPPFEANGKILDYEVTLTRWKSHLQNYTVNATKLTVNLTNDRYLATLTVRNLVGKSDAAVLTIPACDFQATHPVMDLKAFPKDNMLWVEWTTPRESVKKYILEWCVLSDKAPCITDWQQEDGTVHRTYLRGNLAESKCYLITVTPVYADGPGSPESIKAYLKQAPPSKGPTVRTKKVGKNEAVLEWDQLPVDVQNGFIRNYTIFYRTIIGNETAVNVDSSHTEYTLSSLTSDTLYMVRMAAYTDEGGKDGPEFTFTTPKFAQGEIEAIVVPVCLAFLLTTLLGVLFCFNKRDLIKKHIWPNVPDPSKSHIAQWSPHTPPRHNFNSKDQMYSDGNFTDVSVVEIEANDKKPFPEDLKSLDLFKKEKINTEGHSSGIGGSSCMSSSRPSISSSDENESSQNTSSTVQYSTVVHSGYRHQVPSVQVFSRSESTQPLLDSEERPEDLQLVDHVDGGDGILPRQQYFKQNCSQHESSPDISHFERSKQVSSVNEEDFVRLKQQISDHISQSCGSGQMKMFQEVSAADAFGPGTEGQVERFETVGMEAATDEGMPKSYLPQTVRQGGYMPQ
Q: How did the stoichiometry N turn out when B1 was run?
A: 2
